From patent US20100129369A1 (Eli Lilly, published 2010)
Values belong to the binder of their own block, whether it stands above or below them.

Columns and labels:
Human c-Met-Flis-Fc ECD [1] = molecular target: T1, Human c-Met-Flis-Fc ECD (human); assay: ELISA, coated ECD-Fc, antibody 0.357 ng/mL
T1 construct: also called human c-Met extracellular domain (ECD)-Fc-Flis fusion; Human cMet-ECD-Fc-Flis
Procedure: (§1) Wells of 96-well EIA/RIA high binding plates (Costar, #2592) are coated with 100 μL of 1 μg/mL human c-Met extracellular domain (ECD)-Fc-Flis fusion (SEQ ID NO:72), RON-ECD-Fc (R&D Systems, #1947-MS), or PlexinA2-ECD-Fc (Abnova, Taipei, Taiwan #H00005362-P01) in coating buffer (BioFX Labs, # COAT-1000-01) overnight at 4° C. […] After the plates are washed, 100 μL/well of substrate solution (BioFx, #TMBW-1000-01) are added and the plates are incubated for 10 min. at room temperature. 100 μL/well of stop solution (BioFx, # LSTP-1000-01) are added to stop the reaction. The colorimetric signals are developed and read at 450 nm using a SpectraMax 190 plate reader (Molecular Devices, Sunnyvale, Calif.). c-Met antibody binding to c-Met, RON and PlexinA2 ECDs is proportional to color signal production.

Human c-Met-Flis-Fc ECD [2] = molecular target: T1, Human c-Met-Flis-Fc ECD; assay: ELISA, coated ECD-Fc, antibody 0.060 ng/mL
Procedure: as §1

Human c-Met-Flis-Fc ECD [3] = molecular target: T1, Human c-Met-Flis-Fc ECD; assay: ELISA, coated ECD-Fc, antibody 2777.778 ng/mL
Procedure: as §1

Human c-Met-Flis-Fc ECD [4] = molecular target: T1, Human c-Met-Flis-Fc ECD; assay: ELISA, coated ECD-Fc, antibody 462.963 ng/mL
Procedure: as §1

Human c-Met-Flis-Fc ECD [5] = molecular target: T1, Human c-Met-Flis-Fc ECD; assay: ELISA, coated ECD-Fc, antibody 0.010 ng/mL
Procedure: as §1

Human c-Met-Flis-Fc ECD [6] = molecular target: T1, Human c-Met-Flis-Fc ECD; assay: ELISA, coated ECD-Fc, antibody 16666.667 ng/mL
Procedure: as §1

Rat c-Met-Flis-Fc ECD [7] = molecular target: T2, Rat c-Met-Flis-Fc ECD (rat); assay: SPR Biacore, antibody captured, heterogeneous ligand model, second affinity
T2 construct: also called Rat cMet-ECD-Fc-Flis; rat c-Met ECD
T2 sequence (chain, as listed by the source limits assumed): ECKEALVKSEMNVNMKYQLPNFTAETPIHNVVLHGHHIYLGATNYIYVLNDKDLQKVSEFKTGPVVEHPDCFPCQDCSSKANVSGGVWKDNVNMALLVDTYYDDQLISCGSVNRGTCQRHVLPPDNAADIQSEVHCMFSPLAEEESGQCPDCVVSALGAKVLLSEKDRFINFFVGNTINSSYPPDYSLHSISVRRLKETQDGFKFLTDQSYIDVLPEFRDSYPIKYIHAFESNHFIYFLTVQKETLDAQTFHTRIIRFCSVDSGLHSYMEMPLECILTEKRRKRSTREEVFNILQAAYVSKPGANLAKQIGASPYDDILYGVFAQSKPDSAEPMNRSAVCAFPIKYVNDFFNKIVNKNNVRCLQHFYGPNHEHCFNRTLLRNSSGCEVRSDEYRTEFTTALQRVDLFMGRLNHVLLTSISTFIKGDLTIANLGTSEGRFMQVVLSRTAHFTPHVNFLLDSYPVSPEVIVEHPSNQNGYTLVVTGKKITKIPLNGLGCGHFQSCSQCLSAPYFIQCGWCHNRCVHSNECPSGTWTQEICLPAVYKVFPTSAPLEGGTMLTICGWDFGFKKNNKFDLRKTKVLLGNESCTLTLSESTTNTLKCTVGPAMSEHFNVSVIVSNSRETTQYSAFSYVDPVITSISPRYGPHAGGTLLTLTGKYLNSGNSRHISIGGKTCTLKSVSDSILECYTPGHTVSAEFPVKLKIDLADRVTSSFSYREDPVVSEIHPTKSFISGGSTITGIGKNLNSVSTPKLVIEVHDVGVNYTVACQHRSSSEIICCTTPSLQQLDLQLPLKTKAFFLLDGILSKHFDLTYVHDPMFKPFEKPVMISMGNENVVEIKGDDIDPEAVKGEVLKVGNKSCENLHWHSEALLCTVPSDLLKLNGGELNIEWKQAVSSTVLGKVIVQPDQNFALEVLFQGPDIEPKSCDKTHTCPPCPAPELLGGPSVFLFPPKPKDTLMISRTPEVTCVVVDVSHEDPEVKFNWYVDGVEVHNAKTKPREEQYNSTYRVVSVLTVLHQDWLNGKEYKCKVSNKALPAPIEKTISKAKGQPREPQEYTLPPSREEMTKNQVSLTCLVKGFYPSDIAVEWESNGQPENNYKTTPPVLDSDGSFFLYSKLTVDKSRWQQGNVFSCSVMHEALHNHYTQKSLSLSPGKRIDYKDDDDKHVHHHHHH
Procedure: (§2) A Biacore® 2000 instrument is used to measure the binding kinetics of c-Met antibodies to human, cynomolgus monkey, and rat c-Met ECDs. Measurements are performed at 25° C. Samples are dissolved in HBS-EP buffer (150 mM sodium chloride, 3 mM EDTA, 0.005% (w/v) surfactant P-20, and 10 mM N-2-hydroxyethylpiperazine-N′-2-ethanesulfonic acid (HEPES) at pH 7.4; #BR-1001-88).
(§3) Binding is evaluated using multiple cycles. Each cycle is performed at a flow rate of 50 μL/min., and consists of the following steps: injection of about 10 μL of a c-Met antibody at 10 μg/mL aiming at a capture of 40-100 RUs, injection of 250 μL of human, cynomolgus, or rat c-Met-Flis-Fc ECD (starting at 100 nM and using two-fold serial dilutions for each cycle) followed by 20 min. for dissociation, and regeneration using about 30 μL of 10 mM glycine hydrochloride, pH 1.5. […]

Human c-Met-Flis-Fc ECD [8] = molecular target: T1, Human c-Met-Flis-Fc ECD; assay: ELISA, coated ECD-Fc, antibody 12.860 ng/mL
Procedure: as §1

Human c-Met-Flis-Fc ECD [9] = molecular target: T1, Human c-Met-Flis-Fc ECD; assay: ELISA, coated ECD-Fc, antibody 77.160 ng/mL
Procedure: as §1

Rat c-Met-Flis-Fc ECD [10] = molecular target: T2, Rat c-Met-Flis-Fc ECD; assay: SPR Biacore, antibody captured, heterogeneous ligand model, first affinity
Procedure: as §2, §3

Human c-Met-Flis-Fc ECD [11] = molecular target: T1, Human c-Met-Flis-Fc ECD; assay: SPR Biacore, antibody captured, ECD-Fc analyte, 1:1 model
Procedure: as §2
(§4) Binding is evaluated using multiple cycles. Each cycle is performed at a flow rate of 50 μL/min., and consists of the following steps: injection of about 10 μL of a c-Met antibody at 10 μg/mL aiming at a capture of 40-100 RUs, injection of 250 μL of human, cynomolgus, or rat c-Met-Flis-Fc ECD (starting at 100 nM and using two-fold serial dilutions for each cycle) followed by 20 min. for dissociation, and regeneration using about 30 μL of 10 mM glycine hydrochloride, pH 1.5. Association and dissociation rates for each cycle are evaluated using a “1:1 (Langmuir) binding” model in the BIAevaluation software, version 4.1.

[12] = molecular target: T3, Cynomolgus Monkey c-Met-Flis-Fc ECD (cynomolgus monkey); assay: as above
T3 construct: also called Cynomolgus Monkey cMet-ECD-Fc-Flis; cynomolgus monkey c-Met ECD
T3 sequence (chain, as listed by the source limits assumed): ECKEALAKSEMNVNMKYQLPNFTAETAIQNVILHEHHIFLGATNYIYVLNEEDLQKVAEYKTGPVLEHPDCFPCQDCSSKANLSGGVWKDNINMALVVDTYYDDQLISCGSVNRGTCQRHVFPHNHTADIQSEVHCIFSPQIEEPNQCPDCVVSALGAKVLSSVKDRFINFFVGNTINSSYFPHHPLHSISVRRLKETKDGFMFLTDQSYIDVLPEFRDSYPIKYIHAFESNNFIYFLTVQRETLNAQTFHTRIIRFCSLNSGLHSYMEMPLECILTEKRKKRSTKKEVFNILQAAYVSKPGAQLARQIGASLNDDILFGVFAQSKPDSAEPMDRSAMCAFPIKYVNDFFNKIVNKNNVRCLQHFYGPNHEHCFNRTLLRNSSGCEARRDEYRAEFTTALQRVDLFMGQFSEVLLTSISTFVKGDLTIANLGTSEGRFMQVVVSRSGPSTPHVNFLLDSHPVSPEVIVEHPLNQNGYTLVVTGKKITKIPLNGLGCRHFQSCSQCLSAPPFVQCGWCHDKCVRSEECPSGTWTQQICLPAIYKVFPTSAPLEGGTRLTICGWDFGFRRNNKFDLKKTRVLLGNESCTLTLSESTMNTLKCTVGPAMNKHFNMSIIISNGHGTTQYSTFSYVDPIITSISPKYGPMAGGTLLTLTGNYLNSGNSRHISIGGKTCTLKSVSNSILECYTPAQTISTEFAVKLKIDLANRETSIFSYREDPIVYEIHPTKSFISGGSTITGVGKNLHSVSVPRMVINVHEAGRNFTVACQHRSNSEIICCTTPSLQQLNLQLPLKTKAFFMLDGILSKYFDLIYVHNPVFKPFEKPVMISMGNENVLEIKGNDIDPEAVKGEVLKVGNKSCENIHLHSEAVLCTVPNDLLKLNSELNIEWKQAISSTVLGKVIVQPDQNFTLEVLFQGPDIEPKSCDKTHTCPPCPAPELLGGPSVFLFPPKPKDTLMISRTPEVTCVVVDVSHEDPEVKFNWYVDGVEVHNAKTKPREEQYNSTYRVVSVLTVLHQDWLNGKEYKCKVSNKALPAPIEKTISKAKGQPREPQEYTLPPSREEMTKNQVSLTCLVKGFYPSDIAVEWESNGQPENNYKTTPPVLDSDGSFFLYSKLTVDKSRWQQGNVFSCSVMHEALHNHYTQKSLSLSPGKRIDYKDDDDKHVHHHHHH
Procedure: as §2, §4

Human c-Met-Flis-Fc ECD [13] = molecular target: T1, Human c-Met-Flis-Fc ECD; assay: ELISA, coated ECD-Fc, antibody 0.000 ng/mL
Procedure: as §1

Human c-Met-Flis-Fc ECD [14] = molecular target: T1, Human c-Met-Flis-Fc ECD; assay: ELISA, coated ECD-Fc, antibody 0.002 ng/mL
Procedure: as §1

Human c-Met-Flis-Fc ECD [15] = molecular target: T1, Human c-Met-Flis-Fc ECD; assay: ELISA, coated ECD-Fc, antibody 2.143 ng/mL
Procedure: as §1

Human c-Met-Flis-Fc ECD [16] = molecular target: T1, Human c-Met-Flis-Fc ECD; assay: ELISA, coated ECD-Fc, antibody 100000.000 ng/mL
Procedure: as §1

human c-Met [17] = molecular target: T4, human c-Met (human, UniProt P08581 25-1390); assay: cell-based or functional assay
T4 sequence (P08581 25-1390): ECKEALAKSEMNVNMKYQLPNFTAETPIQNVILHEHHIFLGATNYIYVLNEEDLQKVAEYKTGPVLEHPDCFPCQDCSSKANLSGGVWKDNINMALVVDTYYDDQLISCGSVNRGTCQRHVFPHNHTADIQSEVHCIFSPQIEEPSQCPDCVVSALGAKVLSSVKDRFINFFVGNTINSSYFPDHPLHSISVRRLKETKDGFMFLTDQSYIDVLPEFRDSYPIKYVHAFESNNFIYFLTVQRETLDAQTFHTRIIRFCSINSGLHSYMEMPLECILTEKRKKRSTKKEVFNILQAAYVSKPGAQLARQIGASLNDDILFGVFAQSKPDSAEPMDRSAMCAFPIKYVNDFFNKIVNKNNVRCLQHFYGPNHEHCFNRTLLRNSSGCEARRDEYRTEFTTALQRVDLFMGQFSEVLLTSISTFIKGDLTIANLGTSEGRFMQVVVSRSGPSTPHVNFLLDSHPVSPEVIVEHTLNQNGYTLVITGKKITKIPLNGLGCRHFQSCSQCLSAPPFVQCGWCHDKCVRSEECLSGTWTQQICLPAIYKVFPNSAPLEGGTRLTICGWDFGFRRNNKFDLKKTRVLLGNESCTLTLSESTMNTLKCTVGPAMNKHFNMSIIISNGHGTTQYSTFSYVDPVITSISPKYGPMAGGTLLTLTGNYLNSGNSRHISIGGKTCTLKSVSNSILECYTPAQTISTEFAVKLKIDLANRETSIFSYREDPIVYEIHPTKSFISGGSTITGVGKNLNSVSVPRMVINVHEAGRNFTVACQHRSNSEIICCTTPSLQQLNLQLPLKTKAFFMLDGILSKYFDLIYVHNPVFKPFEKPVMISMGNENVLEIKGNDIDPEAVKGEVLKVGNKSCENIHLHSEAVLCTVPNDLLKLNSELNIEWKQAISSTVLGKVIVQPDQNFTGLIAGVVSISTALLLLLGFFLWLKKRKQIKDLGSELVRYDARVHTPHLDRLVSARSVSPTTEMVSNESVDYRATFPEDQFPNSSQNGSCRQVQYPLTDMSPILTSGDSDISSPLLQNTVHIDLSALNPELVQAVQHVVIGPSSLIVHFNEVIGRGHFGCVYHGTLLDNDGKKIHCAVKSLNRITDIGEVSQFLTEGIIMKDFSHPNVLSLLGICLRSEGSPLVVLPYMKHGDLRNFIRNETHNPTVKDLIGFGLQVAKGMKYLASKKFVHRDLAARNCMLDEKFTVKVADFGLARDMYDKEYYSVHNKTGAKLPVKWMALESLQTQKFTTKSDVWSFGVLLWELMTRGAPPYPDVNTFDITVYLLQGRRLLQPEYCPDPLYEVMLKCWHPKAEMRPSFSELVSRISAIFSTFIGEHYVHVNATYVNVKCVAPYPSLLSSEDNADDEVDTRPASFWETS

human c-Met [18] = molecular target: T4, human c-Met; assay: cell-based or functional assay; remark: listed apart in the source
human c-Met [19] = molecular target: T4, human c-Met; assay: cell-based or functional assay; remark: listed apart in the source
human c-Met [20] = molecular target: T4, human c-Met; assay: cell-based or functional assay; remark: listed apart in the source
human c-Met [21] = molecular target: T4, human c-Met; assay: cell-based or functional assay; remark: listed apart in the source

T1 sequence (chain, as listed by the source limits assumed): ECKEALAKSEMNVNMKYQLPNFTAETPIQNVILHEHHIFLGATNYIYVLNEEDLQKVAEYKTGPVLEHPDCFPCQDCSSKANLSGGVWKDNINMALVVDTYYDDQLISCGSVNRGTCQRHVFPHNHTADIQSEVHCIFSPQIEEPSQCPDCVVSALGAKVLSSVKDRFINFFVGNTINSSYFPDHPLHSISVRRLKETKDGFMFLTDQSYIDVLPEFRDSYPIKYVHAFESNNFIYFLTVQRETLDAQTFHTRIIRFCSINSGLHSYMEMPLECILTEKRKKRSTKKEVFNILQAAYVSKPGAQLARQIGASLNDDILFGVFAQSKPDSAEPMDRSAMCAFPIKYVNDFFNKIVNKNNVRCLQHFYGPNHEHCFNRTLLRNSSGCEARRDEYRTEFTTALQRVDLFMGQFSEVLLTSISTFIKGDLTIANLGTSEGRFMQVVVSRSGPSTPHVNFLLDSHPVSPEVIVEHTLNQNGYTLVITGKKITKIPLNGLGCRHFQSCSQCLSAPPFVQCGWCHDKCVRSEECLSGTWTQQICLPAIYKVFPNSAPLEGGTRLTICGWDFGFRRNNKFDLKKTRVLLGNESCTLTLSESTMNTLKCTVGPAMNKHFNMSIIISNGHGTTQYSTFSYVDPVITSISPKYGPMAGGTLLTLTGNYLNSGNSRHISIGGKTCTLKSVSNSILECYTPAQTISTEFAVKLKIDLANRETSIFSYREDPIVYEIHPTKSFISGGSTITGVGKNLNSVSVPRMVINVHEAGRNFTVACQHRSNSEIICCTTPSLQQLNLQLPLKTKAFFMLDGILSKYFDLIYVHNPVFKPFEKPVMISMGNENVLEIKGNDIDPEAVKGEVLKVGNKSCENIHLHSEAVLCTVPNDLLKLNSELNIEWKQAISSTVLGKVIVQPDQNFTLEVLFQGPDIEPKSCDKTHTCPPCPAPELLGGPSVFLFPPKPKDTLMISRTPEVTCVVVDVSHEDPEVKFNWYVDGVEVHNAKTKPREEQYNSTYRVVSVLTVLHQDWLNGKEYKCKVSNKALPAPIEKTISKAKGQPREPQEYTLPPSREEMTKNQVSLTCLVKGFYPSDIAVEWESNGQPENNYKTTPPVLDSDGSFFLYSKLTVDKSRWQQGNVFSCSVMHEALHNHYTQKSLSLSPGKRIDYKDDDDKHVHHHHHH

Average A450 nm (Human c-Met-Flis-Fc ECD [1]): 0.789 A450 nm
Average A450 nm (Human c-Met-Flis-Fc ECD [2]): 0.374 A450 nm
Average A450 nm (Human c-Met-Flis-Fc ECD [3]): 4 A450 nm
Average A450 nm (Human c-Met-Flis-Fc ECD [4]): 4 A450 nm
Average A450 nm (Human c-Met-Flis-Fc ECD [5]): 0.314 A450 nm
Average A450 nm (Human c-Met-Flis-Fc ECD [6]): 4 A450 nm
Kd (Rat c-Met-Flis-Fc ECD [7]): 1.2 nM
koff (Rat c-Met-Flis-Fc ECD [7]): 0.0003 s⁻¹
kon (Rat c-Met-Flis-Fc ECD [7]): 250000 M⁻¹ s⁻¹
Average A450 nm (Human c-Met-Flis-Fc ECD [8]): 4 A450 nm
Average A450 nm (Human c-Met-Flis-Fc ECD [9]): 4 A450 nm
Kd (Rat c-Met-Flis-Fc ECD [10]): 286 nM
koff (Rat c-Met-Flis-Fc ECD [10]): 0.0189 s⁻¹
kon (Rat c-Met-Flis-Fc ECD [10]): 66000 M⁻¹ s⁻¹
Kd (Human c-Met-Flis-Fc ECD [11]): 4.2 nM
koff (Human c-Met-Flis-Fc ECD [11]): 0.00028 s⁻¹
kon (Human c-Met-Flis-Fc ECD [11]): 70000 M⁻¹ s⁻¹
Kd [12]: 5.1 nM
koff [12]: 0.00036 s⁻¹
kon [12]: 70000 M⁻¹ s⁻¹
Average A450 nm (Human c-Met-Flis-Fc ECD [13]): 0.315 A450 nm
Average A450 nm (Human c-Met-Flis-Fc ECD [14]): 0.309 A450 nm
Average A450 nm (Human c-Met-Flis-Fc ECD [15]): 2.14 A450 nm
Average A450 nm (Human c-Met-Flis-Fc ECD [16]): 4 A450 nm
B1: D11-S17Y (antibody, human IgG2, kappa, V domains shown)
VH: QVQLVQSGAEVKKPGSSVKVSCKASGYTFTSRYIHWVRQAPGQGLEWMGWIYPVTGDTYYNEKFKGRVTITADKSTSTAYMELSSLRSEDTAVYYCARGYGAFYYWGQGTLVTVSS
VL: EIVLTQSPGTLSLSPGERATLSCSVSSSISSTNLHWYQQKPGQAPRLLIYGTSYLASGIPDRFSGSGSGTDFTLTISRLEPEDFAVYYCQQWSSYPYSFGQGTKLEIKR
notes: Human engineered IgG2, kappa

Staurosporine-Induced Apoptosis in Caki-1 Cells, Average A450 nm, antibody dose 3 ng/mL (human c-Met [17]): 1.09 A450 nm
Staurosporine-Induced Apoptosis in Caki-1 Cells, Average A450 nm, antibody dose 30 ng/mL (human c-Met [17]): 1.02 A450 nm
Staurosporine-Induced Apoptosis in Caki-1 Cells, Average A450 nm, antibody dose 300 ng/mL (human c-Met [17]): 0.97 A450 nm
Staurosporine-Induced Apoptosis in Caki-1 Cells, Average A450 nm, antibody dose 3000 ng/mL (human c-Met [17]): 0.92 A450 nm
Staurosporine-Induced Apoptosis in Caki-1 Cells, Average A450 nm, antibody dose 30000 ng/mL (human c-Met [17]): 0.96 A450 nm
3H-Thymidine Incorporation in Primary Human Hepatocytes in the Absence of HGF (average), dose 0.0032 ug/mL (human c-Met [18]): 736
3H-Thymidine Incorporation in Primary Human Hepatocytes in the Absence of HGF (average), dose 0.016 ug/mL (human c-Met [18]): 770
3H-Thymidine Incorporation in Primary Human Hepatocytes in the Absence of HGF (average), dose 0.08 ug/mL (human c-Met [18]): 792
3H-Thymidine Incorporation in Primary Human Hepatocytes in the Absence of HGF (average), dose 0.4 ug/mL (human c-Met [18]): 802
3H-Thymidine Incorporation in Primary Human Hepatocytes in the Absence of HGF (average), dose 2 ug/mL (human c-Met [18]): 892
3H-Thymidine Incorporation in Primary Human Hepatocytes in the Absence of HGF (average), dose 10 ug/mL (human c-Met [18]): 1040
3H-Thymidine Incorporation in Caki-1 Cells in the Absence of HGF (AVG CPM), antibody dose 0.1 ng/mL (human c-Met [19]): 16100 CPM
3H-Thymidine Incorporation in Caki-1 Cells in the Absence of HGF (AVG CPM), antibody dose 0.4 ng/mL (human c-Met [19]): 14600 CPM
3H-Thymidine Incorporation in Caki-1 Cells in the Absence of HGF (AVG CPM), antibody dose 2.6 ng/mL (human c-Met [19]): 14100 CPM
3H-Thymidine Incorporation in Caki-1 Cells in the Absence of HGF (AVG CPM), antibody dose 15.4 ng/mL (human c-Met [19]): 13700 CPM
3H-Thymidine Incorporation in Caki-1 Cells in the Absence of HGF (AVG CPM), antibody dose 92.6 ng/mL (human c-Met [19]): 12800 CPM
3H-Thymidine Incorporation in Caki-1 Cells in the Absence of HGF (AVG CPM), antibody dose 555.6 ng/mL (human c-Met [19]): 13500 CPM
3H-Thymidine Incorporation in Caki-1 Cells in the Absence of HGF (AVG CPM), antibody dose 3333.3 ng/mL (human c-Met [19]): 13200 CPM
3H-Thymidine Incorporation in Caki-1 Cells in the Absence of HGF (AVG CPM), antibody dose 20000.0 ng/mL (human c-Met [19]): 13200 CPM
Tubular Morphogenesis Agonist activity (fold stimulation) in HepG2 cells, antibody 50 ug/ml (human c-Met [20]): 1.2 fold stimulation
Percent of DU145 Cells in Colonies (scatter assay), antibody 20 ug/mL (human c-Met [21]): 23.3%
B2: C8-6 (antibody, human IgG2, kappa, V domains shown)
VH: QVQLVQSGAEVKKPGASVKVSCKASGYTFTDYYMHWVRQAPGQGLEWMGRVNPNRGGTTYNQKFEGRVTMTTDTSTSTAYMELRSLRSDDTAVYYCARTNWLDYWGQGTTVTVSS
VL: DIQMTQSPSSLSASVGDRVTITCSVSSSVSSIYLHWYQQKPGKAPKLLIYSTSNLASGVPSRFSGSGSGTDFTLTISSLQPEDFATYYCIQYSGYPLTFGGGTKVEIKR
